Results published in publication doi:10.1101/2025.09.29.679228.
Like-named read-outs stand apart in the source and are kept apart here. Values belong to the molecule of their own block, whether it stands above or below them.

What was measured:
Experiment in all cases: MST
[1] = biological target: EphA2 ICRΔSAM, kinase-dead (D739N) (human)
[2] = biological target: EphA2 ICRΔSAM, wildtype, phosphorylated (human)
[3] = biological target: EphA2 intracellular region (ICR), kinase-dead (D739N) (human) (UniProt P29317)
[4] = biological target: EphA2 intracellular region (ICR), wildtype, phosphorylated (human) (UniProt P29317)
[5] = biological target: EphA2 ICRΔSAM, wildtype, phosphorylated (human); remark: listed apart in the source
Target sequence in this assay (P29317 899-973, stated change not applied): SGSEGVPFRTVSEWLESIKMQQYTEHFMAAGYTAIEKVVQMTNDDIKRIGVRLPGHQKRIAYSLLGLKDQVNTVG

Molecule: EphA2 ICRΔSAM, kinase-dead (D739N) (domain or fragment)
- Kd [1]: 1 µM

Molecule: EphA2 intracellular region (ICR), kinase-dead (D739N) (from UniProt P29317 559-976) (domain or fragment)
- Kd [3]: 1.3 µM

B1: SHIP2 SAM domain (isolated) (domain or fragment)
chain: GMSAWLRAIGLERYEEGLVHNGWDDLEFLSDITEEDLEEAGVQDPAHKRLLLDTLQLSK
- Kd [5]: 7.5 µM

Now from value to molecule:

- Kd [2]: 5.4 µM
Molecule: EphA2 ICRΔSAM, wildtype, phosphorylated (domain or fragment)

- Kd [4]: 15 µM
Molecule: EphA2 intracellular region (ICR), wildtype, phosphorylated (from UniProt P29317 559-976) (domain or fragment)
